The values that follow are results of earlier work, collected in paper PMC4624693.

The target of one data set is Asp11 (UniProt position 987, CPSSYDGYCLN). In words: NMR. To be noted: free, folded protein.
The next data set addresses Asp27 (UniProt position 1003, HIESLDSYTCN). In words: NMR. The settings on record: free, folded protein.
For another data set, the target named is Asp40 (UniProt position 1016, IGYSGDRCQTR). In words: NMR. To be noted: free, folded protein.
A further data set addresses Asp46 (UniProt position 1022, RCQTRDLRWWE). In words: NMR. The settings on record: free, folded protein.
The target of the next data set is Cterm53 (UniProt position 1029, RWWELRHAGYG). Description: NMR. The settings on record: free, folded protein.
The target of another data set is Glu24 (UniProt position 1000, VCMHIESLDSY). In words: NMR. To be noted: free, folded protein.
The target of another data set is Glu51 (UniProt position 1027, DLRWWELRHAG). In words: NMR. To be noted: free, folded protein.
Another data set concerns the target His22 (UniProt position 998, GGVCMHIESLD). In words: NMR. To be noted: free, folded protein.
A further data set addresses Nterm1 (UniProt position 977, HHLDRNSYPGC). Description: NMR. To be noted: free, folded protein.
The next data set has as its target Lys66 (UniProt position 148, FTKKMKENAKK).
For a further data set, the target named is Asp. The settings on record: free peptide.

What is called pKa is the negative logarithm of the acid dissociation constant. In the case of “Epidermal growth factor (mouse EGF) (Mus musculus)”, the pKa with Asp11 is reported as 3.9±0.05; with Asp27, 4.0±0.1; in the data set with Asp40 it was 3.6±0.1; with Asp46 it was 3.8±0.1; in the data set with Cterm53 it was 3.5±0.1; in the data set with Glu24, 4.1±0.1. The pKa in the data set with Glu51 was roughly 4; with His22, 6.8±0.1; with Nterm1, 7.7±0.1.
For the molecule “Staphylococcal nuclease Delta+PHS/V66K (Staphylococcus aureus; V66K; Delta+PHS background (substitutions not listed in the article))”, in the data set with Lys66, the pKa is reported as 5.6.
As for SDNKTYG, the pKa in the data set with Asp is 3.6.
